Measured values reported in PMC9253517 (The Journal of Experimental Medicine, 2022).

B1: JN236 (antibody, V domains shown)
VH: QVQLQESGPRLVKPSETLSLTCTVSGGSINDYYWSWIRQPPGKGLEYLGYIYYTGTTNYNPSLQSRLTMSVDTSKNQFSLKVNYVSAADTAVYYCARHSTGGSYPLDSWGRGILVTVSS
VL: DIVMTQSPLTLPVTPGEPASISCRSSQSLLHSNGHNYVDWYLQKPGQSPQLLIHLGSNRASGVPDRFSGSGSGTDFTLKISRVEAEDVGVYFCMQALQSRTFGQGTKVEIK
B2: JN219 (antibody, V domains shown)
VH: QLQLQESGPGLVKPSETLSLTCTVSGGSISSSSYYWGSYYWGWIRQPPGKGLEWIASIYYSGTTYYNPSLKSRVTISVDTSKNQFSLKLSSVTAADTAVYYCASRYCSGGSCSLDYWGQGTLVTVSS
VL: QSALTQPRSLSGSPGQSVTISCTGTSSDVGSYNYVSWYQQHPGKAPKLMIYDVSKRPSGVPDRFSGSKSGNTASLTISGLQAEDEADYYCCSYAGSYTLWVFGGGTKLTVL
B3: JN015 (antibody, V domains shown)
VH: QLQLQESGPGLVKPSETLSLTCTVSGGSISGSSYYWGWIRQPPGKGLEWFGSIYYSGTTYYNPSLKSRVAISVDTSKKQFSLKLSSVTAADTAVYYCAARYFDWSVEYWGQGTLVTVSS
VL: QSALTQPRSVSGSPGQSVTISCTGTSSDVGGYNYVSWYQQQPGKAPKLMIYDVSKRPSGVPDRFSGSKSGNTASLTISGLQAEDEADYHCCSYAGSYTYWLFGGGTKLTVL
B4: JN222 (antibody, V domains shown)
VH: EVQLVESGGGLVQPGGSLRLSCAASGFTFSRYWMSWVRQAPGKGLEWVANIKGDGKYYVDSLKGRFTISGDNAENSLYLQMNSLRAEDTAMYYCARYLAETGALDIWGQGTMVTVSS
VL: QSALTQPRAVSGSPGQSVTISCTGTSSDVGGYNYVSWYQQHPGKAPKLMIYDVSKRPSGVPDRFSGSKSGNTASLTISGLQAEDEADYYCYSFSGRYTSYVFGIGTKVTVL
B5: JN229 (antibody, V domains shown)
VH: QVQLVQSGAEVKKPGSSVKVSCKASGGRFSSTAISWVRQAPGQGLEWMGGIIPIFGAPTDVQKFQGRVTITADQSTSTAYMELSNLRSEDTAVYYCATLGNYDFLTGNTFSYFDYWGQGTLVTVSS
VL: NFMLTQPHSVSESLGKTVTISCTRTSGSIASDYVQWYQQRPGSSPTTVIYENFQRPSGVPDRFSASVDSSSNSASLTISGLRAEDEADYYCQSHDRSDFLPVFGGGTQLTVL
B6: JN038 (antibody, V domains shown)
VH: QVQLVQSGAEVKKPGSSVKVSCKASGGRFSSTAISWVRQAPGQGLEWMGGIIPIFGAPTDVQKFQGRVTITADQSTSTAYMELSNLRSEDTAVYYCATLGNYDFLTGNTFSYFDYWGQGTLVTVSS
VL: DIQLTQSPSSLSASVGDRVTITCRAGQSIGNYLNWYQQKPGKAPKVLIYGASSLQSGVPSRFSGSGSGTDFTLTISSLQPEDFASYYCQQSFTTPLTFGGGTKVEIK
B7: JN026 (antibody, V domains shown)
VH: QVQLQESGPGLVKPSETLSLTCTVSGGSISSYYWSWIRQPPGKGLEWIGYIYYSGSTNYNPSLKSRVTISVDTSKNQFSLKLSSVTAADTAVYYCARHSLTYYYDRSDYKGAFDIWGQGTMVTVSS
VL: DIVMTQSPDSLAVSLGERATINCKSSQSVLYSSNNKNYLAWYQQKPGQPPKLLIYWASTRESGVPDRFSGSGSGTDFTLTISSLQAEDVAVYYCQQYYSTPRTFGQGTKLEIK
B8: JN022 (antibody, V domains shown)
VH: QVQLQESGPGLVKPSETLSLTCTVSGDSIRNYYWSWIRQPPGKGLEWMGYIYYSGSTNYNPSLKSRVTISVDTSKNQFSLKLSSVTAADTAVYYCARHSLTYYYDSSDYKGAFDIWGQGTMVTVSS
VL: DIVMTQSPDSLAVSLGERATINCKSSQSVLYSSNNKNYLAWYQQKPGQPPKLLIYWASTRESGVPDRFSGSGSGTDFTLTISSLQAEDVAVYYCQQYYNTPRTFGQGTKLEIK
B9: JN034 (antibody, V domains shown)
VH: QVQLQESGPGLVEPSQTLSLTCAVSGGSISGGDYYWSWIRQPPGKGLEWIGYIYYSGSTFYNPSLYSRLTISVDTSKNQFSLKLSSVTAADTAVYYCAREGPAIFKIPNGFDIWGQGTMVTVSS
VL: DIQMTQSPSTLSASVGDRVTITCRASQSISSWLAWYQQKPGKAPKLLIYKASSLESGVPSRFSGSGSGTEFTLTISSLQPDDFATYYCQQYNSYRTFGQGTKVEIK
B10: JN033 (antibody, V domains shown)
VH: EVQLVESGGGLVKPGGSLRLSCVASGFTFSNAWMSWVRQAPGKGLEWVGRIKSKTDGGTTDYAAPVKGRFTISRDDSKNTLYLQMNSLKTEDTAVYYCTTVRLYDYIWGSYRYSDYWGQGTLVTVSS
VL: DIQLTQSPFSLSASVGDRVTITCRASQGISSYLAWYQQKPGKAPKLLIYAASTLQSGVPSRFSGSGSGTEFTLTISSLQPEDFATYYCQQLNSYPPNTFGPGTKVDIK
B11: JN138 (antibody, V domains shown)
VH: QVQLVQSGTEVKKPGASVKVSCKASGYTFTSYYMHWVRQAPGQGLEWMGIINPSGGSTSYAQKFQGRVTMTRDTSTSTVYMELSSLRSEDTAVYYCARAELGSGSYPYYGMDVWGKGTTVTVSS
VL: SYELTQPPSVSVSPGQTARITCSGDALPKQYAYWYQQKPGQAPVLVIYKDSERPSGIPERFSGSSSGTTVTFTISGVQAEDEADYYCQSADSSGSYVVFGGGTKLTVL
B12: JN226 (antibody, V domains shown)
VH: QVQLVQSGAEVKKPGSSVKVSCKASGGTFSSYAISWVRQAPGQGLEWMGGIIPIFGTANYAQKFQGRVTITADKSTSTAYMELSSLRSEDTAVYYCAMLGAGSPLRGIFGVVMTDGDGMDVWGQGTTVTVSS
VL: QSVLTQPPSVSAAPGQKVTISCSGSSSNIGNNYVSWYQQLPGTAPKLLIYDNNKRPSGIPDRFSGSKSGTSATLGITGLQTGDEADYYCGTWDSSLSAGRVFGGGTKLTVL
B13: JN232 (antibody, V domains shown)
VH: EVQLVQSGAEVKKPGESLNISCKGSGYSFTNYWIGWVRQMPGKGLEWMGIIYPGDSDTRYSPSFQGQVTISADKSISTVFLQWSSLKASDTAMYYCVRHDVLAVLMGGVTFDIWGQGTMVTVSS
VL: EIVLTQSPGTLSLSPGERATLSCRASQSISSSYLAWYQQKSGQAPRLLIYGASSRATGIPDRFSGSGSGTDFTLTISRLEPEDFAVYYCQQYGGSPMYTFGQGTKLEIK
B14: JN012 (antibody, V domains shown)
VH: QLQLQESGPGLVKPSETLSLTCTVSGGSISSGSYYWVWIRQPPGKGLEWIGSVYYSGTTYYNPSLKSRVTISIDTSKNQFSLRLSSVTAADTAVYYCATNNYSFLTGYYVLDYWGQGTLVTVSS
VL: SYELTQPPSVSVSLGQMARITCSGEALPKTYAYWYQQKPGQFPVLVIYKDSERPSGIPERFSGSRSGTIVTLTISGVQAEDEADYYCLSTDISGTWVFGGGTKLTVL
B15: JN139 (antibody, V domains shown)
VH: QVQLQESGPGLVKPSETLSLTCTVSGGSISNYFWSWIRQPPGQGLEWIGYIFYNGDTTYNPSLKSRVTISVDTSKNQFSLKLSSVTAADTAVYYCARDYYDSRGVFHGGFDSWGQGILVTVSS
VL: DIVMTQSPDSLAVSLGERATINCKSSQSVLYSSNSRNYLAWYQQRPGQPPKRLIYWASTRESGVPDRFSGSGSGTDFTLTISSLQAEDVAVYYCQQYYTNPPWTFGQGTKVEIK
B16: JN028 (antibody, V domains shown)
VH: EVQLVESGGGLVQPGGSLRLSCAASGFTFSSYSMNWVRQAPGKGLEWVSYISSSSSTIYYADSVKGRFTISRDNAKNSLYLQMNSLRDEDTAVYYCAPLRVLGGMDVWGQGTTVTVSS
VL: SYELTQPPSVSVSPGQTARIICSGDALPKQYAYWYQQKPGQAPVLVIYKDSERPSGIPERFSGSSSGTTVTLTISGVQAEDEADYYCQSADSSGWVFGGGTKLTVL
B17: JN225 (antibody, V domains shown)
VH: EVQLVESGGGLVQPGGSLRLSCGASGFTLGSFWMHWVRQAPGKGLEWVGDINGDGSAKYYADSVRGRFTISRDNAENSLFLQMNSLRVEDTALYYCARGAAWLDYWGQGTLVTVSS
VL: QSALTQPASVSGSPGQSITISCTGTSSDVGGYNYVSWYQQHPGKAPKLIIYDVTNRPSGVSNRFSGSKSGNTASLTISGLQAEDEADYFCDSYRSSSPPSYVFGTGTKVTVL
B18: JN030 (antibody, V domains shown)
VH: EVQLVESGGGLVKPGGSLRLSCAASGFTFSNYNMNWVRQAPGKGLEWVSSISTSGSFIYYADSVKGRFTISRDNAKNSLYLQMNSLRAEDTAVYYCARDTTPYSSGWYLWYFDLWGRGTLVTVSS
VL: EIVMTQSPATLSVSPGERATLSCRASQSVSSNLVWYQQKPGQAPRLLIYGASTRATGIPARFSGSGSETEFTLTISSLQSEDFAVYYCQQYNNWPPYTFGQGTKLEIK
B19: JN136 (antibody, V domains shown)
VH: QVQLVESGGGVVQPGRSLRLSCAASGFTFSSYAMHWVRQAPGKGLEWVAVISYDGSNKYYADSVKGRFTISRDNSKNTLYLQMNSLRAEDTAVYYCARELAWRGITIFGVVIYNPFDYWGQGTLVTVSS
VL: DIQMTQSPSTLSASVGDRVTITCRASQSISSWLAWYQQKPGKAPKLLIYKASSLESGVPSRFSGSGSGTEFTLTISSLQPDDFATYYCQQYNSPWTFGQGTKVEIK
B20: JN135 (antibody, V domains shown)
VH: QLQLQESGPGLVKPSETLSLTCTVSGGSISSSSYYWGWIRQPPGKGLEWIGSIYYSGSTYYNPSLKSRVTISVDTSKNQFSLKLSSVTAADTAVYYCARLIAATWTFGGVIFNWFDPWGQGTLVTVSS
VL: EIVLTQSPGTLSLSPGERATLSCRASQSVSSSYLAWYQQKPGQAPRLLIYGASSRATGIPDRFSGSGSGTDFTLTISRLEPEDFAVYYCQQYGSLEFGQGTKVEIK
B21: JN227 (antibody, V domains shown)
VH: QLQLQESGPGLVKPSETLSLTCTVSGGSISSSSYYWGWIRQPPGKGLEWIGSIYYSGSTYYNPSLKSRVTISVDTSKNQFSLKLSSVTAADTAVYYCAREGVITIFGVAQFDYWGQGTLVTVSS
VL: not shown
B22: JN223 (antibody, V domains shown)
VH: EVQLLESGGGLVQPGGSLRLSCAASRFTFSNFAMSWVRQAPGKGLEWVSAISGSGGSTYYADSVKGRFIISRDNSKNTLFLQMNSLRAEDTAVYFCAKDLPYDNTGARFDYWGQGTLVTVSS
VL: SYELTQPPSVSVSPGQTARITCSGDALPKKYAYWYQQKSGQAPVLVIYEDSKRPSGIPERFSGSSSGTMATLTISGAQVEDEADYYCYSTDSTGNHRGVFGGGTKLTVL
B23: JN018 (antibody, V domains shown)
VH: QVQLQESGPGLVKPSETLSLTCTVSGGSISGSYWSWMRQPAGKPLEWIGRIYVSGSYNRNPSLSSRVTVSEDTAKNQISLRLTSVTAADTAVYYCAREIMGWYFDLWGRGTLVTVSS
VL: EIVMTQSPGTLSVSPGERATLSCRASQSVRSSLAWYQQKPGQAPRLLIYDASTRATGIPARFSGSGSGTEFTLTISSLQSEDFAIYLCQQYYNWPSYTFTQGTKLEIK
B24: JN005 (antibody, V domains shown)
VH: QVQLVESGGGLVEPGGSLRLSCAASGFTFSDYFMSWIRQAPGRGLEWVSFITTSGSTIYYADSVKGRFTISRDNAKNSLYLQMNSLRAEDTAVYYCARRSGGYYDILTGPYGLDVWGQGTTVTVSS
VL: not shown

What follows are binders tested against SARS-CoV-2 Wuhan-Hu-1 NTD (SARS-CoV-2, UniProt P0DTC2 14-307) (assay: cell-based or functional assay).
In the case of B1, the “neutralisation IC50, WT (293TAce2)” value is reported as over 1 µg/mL. In the case of B2, the “neutralisation IC50, WT (293TAce2)” value is reported as over 1 µg/mL. For B3, the “neutralisation IC50, WT (293TAce2)” value was over 1 µg/mL. For B4, the “neutralisation IC50, WT (293TAce2)” value was over 1 µg/mL. For B5, the “neutralisation IC50, WT (293TAce2)” value was over 1 µg/mL. For B6, the “neutralisation IC50, WT (293TAce2)” value was over 1 µg/mL. For B7, the “neutralisation IC50, WT (293TAce2)” value was over 1 µg/mL. B8 was tested, and the “neutralisation IC50, WT (293TAce2)” value was over 1 µg/mL. B9 was tested, and the “neutralisation IC50, WT (293TAce2)” value was over 1 µg/mL. B10 was tested, and the “neutralisation IC50, WT (293TAce2)” value was over 1 µg/mL. In the case of B11, the “neutralisation IC50, WT (293TAce2)” value is reported as 0.401 µg/mL. In the case of B12, the “neutralisation IC50, WT (293TAce2)” value is reported as over 1 µg/mL. In the case of B13, the “neutralisation IC50, WT (293TAce2)” value is reported as over 1 µg/mL. For B14, the “neutralisation IC50, WT (293TAce2)” value was over 1 µg/mL. For B15, the “neutralisation IC50, WT (293TAce2)” value was over 1 µg/mL. For B16, the “neutralisation IC50, WT (293TAce2)” value was over 1 µg/mL. In the case of B17, the “neutralisation IC50, WT (293TAce2)” value is reported as over 1 µg/mL. For B18, the “neutralisation IC50, WT (293TAce2)” value was 0.348 µg/mL. With B19 the “neutralisation IC50, WT (293TAce2)” value was over 1 µg/mL. With B20 the “neutralisation IC50, WT (293TAce2)” value was 0.947 µg/mL. In the case of B21, the “neutralisation IC50, WT (293TAce2)” value is reported as over 1 µg/mL. B22 was tested, and the “neutralisation IC50, WT (293TAce2)” value was over 1 µg/mL. With B23 the “neutralisation IC50, WT (293TAce2)” value was over 1 µg/mL. For B24, the “neutralisation IC50, WT (293TAce2)” value was over 1 µg/mL.
